T1: Fc Receptor-like 5 (FcRL5), full length, overexpressed on 3T3 or Raji cells (human, UniProt Q96RD9 16-977)
T1 construct: also called 3T3-FcRL5
T1 sequence: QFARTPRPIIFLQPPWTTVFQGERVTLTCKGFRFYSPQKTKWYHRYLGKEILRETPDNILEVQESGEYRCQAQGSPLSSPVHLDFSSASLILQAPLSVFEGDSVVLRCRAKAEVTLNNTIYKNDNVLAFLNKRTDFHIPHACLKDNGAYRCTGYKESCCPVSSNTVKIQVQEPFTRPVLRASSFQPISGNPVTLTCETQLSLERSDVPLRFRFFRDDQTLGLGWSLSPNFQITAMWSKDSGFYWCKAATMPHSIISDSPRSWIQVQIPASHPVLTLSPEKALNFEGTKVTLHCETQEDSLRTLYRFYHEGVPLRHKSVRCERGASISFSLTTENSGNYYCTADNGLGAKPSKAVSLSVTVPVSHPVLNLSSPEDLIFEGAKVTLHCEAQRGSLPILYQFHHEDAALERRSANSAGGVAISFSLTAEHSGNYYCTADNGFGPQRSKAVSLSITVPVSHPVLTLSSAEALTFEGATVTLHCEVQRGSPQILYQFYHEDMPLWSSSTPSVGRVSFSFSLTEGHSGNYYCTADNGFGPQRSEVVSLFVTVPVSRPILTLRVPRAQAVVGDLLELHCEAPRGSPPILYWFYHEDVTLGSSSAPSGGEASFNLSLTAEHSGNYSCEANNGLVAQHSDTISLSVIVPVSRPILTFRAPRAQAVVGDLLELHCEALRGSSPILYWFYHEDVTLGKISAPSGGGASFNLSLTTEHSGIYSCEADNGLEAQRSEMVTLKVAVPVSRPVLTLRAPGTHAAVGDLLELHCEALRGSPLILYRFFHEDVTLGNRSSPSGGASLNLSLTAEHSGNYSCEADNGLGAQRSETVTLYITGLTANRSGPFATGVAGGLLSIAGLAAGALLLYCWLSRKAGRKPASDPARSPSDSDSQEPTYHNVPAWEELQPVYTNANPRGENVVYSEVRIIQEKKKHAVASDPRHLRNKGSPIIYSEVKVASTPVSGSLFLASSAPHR

T2: FcRL3, overexpressed on 3T3 cells (UniProt Q96P31 18-734, limits assumed)
T2 construct: whole, on cells
T2 sequence (looked up): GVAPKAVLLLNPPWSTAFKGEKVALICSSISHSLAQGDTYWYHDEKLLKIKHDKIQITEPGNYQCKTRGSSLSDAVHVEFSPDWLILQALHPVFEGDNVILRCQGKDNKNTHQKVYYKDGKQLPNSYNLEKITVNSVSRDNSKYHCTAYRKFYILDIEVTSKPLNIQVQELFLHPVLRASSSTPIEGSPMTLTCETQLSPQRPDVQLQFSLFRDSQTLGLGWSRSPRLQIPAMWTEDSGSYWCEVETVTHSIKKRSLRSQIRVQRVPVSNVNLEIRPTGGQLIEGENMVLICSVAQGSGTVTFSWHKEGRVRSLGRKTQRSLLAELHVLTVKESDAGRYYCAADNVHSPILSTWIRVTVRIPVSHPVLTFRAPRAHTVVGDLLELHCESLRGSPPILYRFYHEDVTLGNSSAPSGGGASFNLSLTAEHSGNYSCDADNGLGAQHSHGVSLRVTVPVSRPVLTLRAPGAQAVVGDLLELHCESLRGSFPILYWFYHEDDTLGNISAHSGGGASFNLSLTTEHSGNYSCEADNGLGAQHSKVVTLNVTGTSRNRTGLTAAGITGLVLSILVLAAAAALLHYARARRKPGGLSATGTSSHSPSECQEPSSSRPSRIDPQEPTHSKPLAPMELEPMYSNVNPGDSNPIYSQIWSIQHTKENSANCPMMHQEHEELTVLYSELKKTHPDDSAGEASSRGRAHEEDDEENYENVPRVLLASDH

T3: FcRL4, overexpressed on 3T3 cells (UniProt Q96PJ5 20-515, limits assumed)
T3 construct: whole, on cells
T3 sequence (looked up): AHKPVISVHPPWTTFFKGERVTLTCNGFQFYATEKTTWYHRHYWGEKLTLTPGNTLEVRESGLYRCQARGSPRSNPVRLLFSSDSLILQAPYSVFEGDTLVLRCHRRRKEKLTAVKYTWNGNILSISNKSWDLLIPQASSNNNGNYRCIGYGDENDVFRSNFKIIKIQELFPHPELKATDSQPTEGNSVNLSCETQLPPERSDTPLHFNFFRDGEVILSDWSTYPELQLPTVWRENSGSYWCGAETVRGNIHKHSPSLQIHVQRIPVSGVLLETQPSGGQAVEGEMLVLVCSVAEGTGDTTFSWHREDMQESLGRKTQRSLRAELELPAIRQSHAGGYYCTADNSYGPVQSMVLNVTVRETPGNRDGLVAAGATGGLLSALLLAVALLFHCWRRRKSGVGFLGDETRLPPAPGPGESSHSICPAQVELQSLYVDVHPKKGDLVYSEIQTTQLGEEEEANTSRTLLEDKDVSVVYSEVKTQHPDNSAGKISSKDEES

T4: FcRL2, overexpressed on 3T3 cells (UniProt Q96LA5 20-508, limits assumed)
T4 construct: whole, on cells
T4 sequence (looked up): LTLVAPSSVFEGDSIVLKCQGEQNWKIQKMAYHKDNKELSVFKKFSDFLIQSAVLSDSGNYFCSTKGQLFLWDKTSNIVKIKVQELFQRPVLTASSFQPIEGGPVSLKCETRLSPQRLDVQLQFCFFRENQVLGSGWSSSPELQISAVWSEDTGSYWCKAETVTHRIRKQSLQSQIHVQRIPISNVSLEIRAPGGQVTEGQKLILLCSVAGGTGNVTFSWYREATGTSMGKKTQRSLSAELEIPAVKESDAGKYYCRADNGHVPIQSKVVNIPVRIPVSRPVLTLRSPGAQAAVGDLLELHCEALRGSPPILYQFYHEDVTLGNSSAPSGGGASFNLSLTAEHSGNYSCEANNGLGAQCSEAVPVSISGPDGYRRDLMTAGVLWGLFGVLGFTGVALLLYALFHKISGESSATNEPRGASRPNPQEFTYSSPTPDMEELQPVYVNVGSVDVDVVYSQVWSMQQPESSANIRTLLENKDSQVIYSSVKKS

B1: ET200-045 (scFv)
scFv: QPVLTQPPSVSVAPGKTATITCGGNNIGSESVHWYHQKPGQAPVLVIYDDAGRPSGIPERFTGSNSGNTATLTISRVEAGDEADYYCQVWDRNSAQFVFGPGTKVTVLGSRGGGGSGGGGSGGGGSLEMAEVQLVQSGAEVKKPGASVKVSCKASGYTFTSYGISWVRQAPGQGLEWMGWISAYNGNTNYAQKLQGRVTMTTDTSTSTAYMELRSLRSDDTAVYYCARGVHLDWWGQGTLVTVSSTSGQAGQHHHHHHGAYPYDVPDYAS
notes: screened as phage clone; entry is VL-linker-VH-His tag-HA tag
B2: ET200-040 (scFv)
scFv: QSVLTQPPSVSGAPGQRVTISCTGSSSNIGAGYDVHWYQQLPGTAPKLLIYGNSNRPSGVPDRFSGSKSGTSASLAITGLQAEDEADYYCQSYDSSLSGYVFGTGTKVTVLGSRGGGGSGGGGSGGGGSLEMAQVQLVQSGAEVKKPGASVKVSCKVSGYTLTELSMHWVRQAPGKGLEWMGGFDPEDGETIYAQKFQGRVTMTEDTSTDTAYMELSSLRSEDTAVYYCARYSGVYYDWGQGTLVTVSSTSGQAGQHHHHHHGAYPYDVPDYAS
notes: as for B1
B3: ET200-041 (scFv)
scFv: NFMLTQPHSVSGSPGKTVTISCTGSSGSIADNFVQWYQQRPGGVPTTVIFNDDERPSGVPDRFSGSIDTSSNSASLTISGLKTEDEADYYCQSYDNNNRGVFGGGTKLTVLGSRGGGGSGGGGSGGGGSLEMAQVQLVQSGAEVKKPGSSVKVSCKASGGTFSSYAISWVRQAPGQGLEWMGWMNPNSGNTGYAQKFQGRVTMTRNTSISTAYMELSNLRSEDTAVYYCARYYSYGYDWGQGTLVTVSSTSGQAGQHHHHHHGAYPYDVPDYAS
notes: as for B1
B4: ET200-042 (scFv)
scFv: QSVVTQPPSVSGAPGQTVTISCTGGSSNIGTGYFVNWYQQVPGKAPKLLILGNNNRPSGVPDRLSGSTSGTSASLAITGLQAEDEGTYYCQSYDSSLSGYVFGTGTKVTVLGSRGGGGSGGGGSGGGGSLEMAQVQLQQSGPGLVKPSQTLSLTCGISGDSVSTNSVAWHWIRQSPSRGLEWLGRTYYRSKWSNDYGVSVKSRITIIPDTSKNQFSLQLNSVTPEDTAVYYCARSSSWYQIFDYWGQGTLVTVSSTSGQAGQHHHHHHGAYPYDVPDYAS
notes: as for B1
B5: ET200-038 (scFv)
scFv: QSVLTQPPSVSGAPGQRVTISCTGSSSNIGAGFDVHWYQLLPGTAPKLLIYANSNRPSGVPDRFSGSKSGTSASLAITGLLAEDEADYYCQSYDSSLSGVVFGGGTKLTVLGSRGGGGSGGGGSGGGGSLEMAQVQLVQSGAEVKKPGSSVKVSCKASGGTFSSYAISWVRQAPGQGLEWMGGIIPIFGTANYAQKFQGRVTITADESTSTAYMELSSLRSEDTAVYYCARGASFDRHDNWGQGTLVTVSSTSGQAGQHHHHHHGAYPYDVPDYAS
notes: as for B1
B6: ET200-003 (scFv)
scFv: QSVLTQPPSVSVSPGQTASISCSGNKLGTKYVYWYQKRPGQSPVLVMYEDNQRPSGIPERFSGSNSGNTATLTIRGTQTVDEADYYCQAWDSDTFVVFGGGTKVTVLGSRGGGGSGGGGSGGGGSLEMAEVQLVETGGGVVQPGRSLRLSCAASGFTFSSYGMHWVRQAPGKGLEWVAVISHDGSNKYYADSVKGRFTISRDNSKDTLYLQMNSLRGEDTAVYYCARSNQWSGYFSFDYWGQGTLVTVSSTSGQAGQHHHHHHGAYPYDVPDYAS
notes: as for B1
B7: ET200-044 (scFv)
scFv: QSVLTQPPSVSVSPGQTATIACSGHKLGDKYASWYQQKSGQSPVLIIYQDNKRPSGIPERFSGSNSGNTATLTISGTQALDEADYYCQAWDSSTYVAFGGGTKLTVLGSRGGGGSGGGGSGGGGSLEMAQVQLQESGPGLVKPSETLSLTCVVSGGSISSSNWWSWVRQPPGKGLEWIGEIYHSGSPNYNPSLKSRVTISVDKSKNQFSLKLSSVTAADTAVYYCARMTTHTFGYDAWGQGTLVTVSSTSGQAGQHHHHHHGAYPYDVPDYAS
notes: as for B1
B8: ET200-069 (scFv)
scFv: QSVVTQPPSASGTPGQRVTISCSGSSSNIGSNYVYWYQQLPGTAPKLLIYSNNQRPSGVPDRFSGSKSGTSASLAISGLRSEDEADYYCAAWDDSLSGYVFGTGTKLTVLGSRGGGGSGGGGSGGGGSLEMAQVQLQQWGAGLLKPSETLSLTCAVYGGSFSGYYWSWIRQPPGKGLEWIGEINHSGSTNYNPSLKSRVTISVDTSKNQFSLKLSSVTAADTAVYYCARLYEGGYHGWGSWLSSDSWGQGTLVTVSSTSGQAGQHHHHHHGAYPYDVPDYAS
notes: screened as phage clone; entry is VL-linker-VH-His tag-HA tag; also called ET200-69

What follows are binders tested against T1, Fc Receptor-like 5 (FcRL5), full … (assay: phage clone screening on cells).
Procedure, shortened: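 scFv phage clones were incubated with live 3T3 cells overexpressing full-length FcRL5, then detected with mouse anti-M13 mAb and PE-anti-mouse Ig by flow cytometry. 3T3 cells expressing FcRL1, 2, 3, 4 or 6 served as negative-control targets.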

Q: Does B1 bind?
A: Result: binds

Q: Does B2 bind?
A: Result: binds

Q: Does B3 bind?
A: Result: binds

Q: Does B4 bind?
A: Result: binds

Q: Does B5 bind?
A: Result: binds

Q: Does B6 bind?
A: Result: binds

Q: Does B7 bind?
A: Result: binds

Q: Does B8 bind?
A: Result: binds

The binders below were run against T2, FcRL3, overexpressed on 3T3 cells (assay: phage clone on 3T3-FcRL3 cells).

Q: Does B1 bind?
A: Result: no binding

Q: Does B2 bind?
A: Result: no binding

Q: Does B3 bind?
A: Result: no binding

Q: Does B4 bind?
A: Result: no binding

Q: Does B5 bind?
A: Result: no binding

Q: Does B6 bind?
A: Result: no binding

Q: Does B7 bind?
A: Result: no binding

Q: Does B8 bind?
A: Result: no binding

What follows are binders tested against T3, FcRL4, overexpressed on 3T3 cells (assay: phage clone on 3T3-FcRL4 cells).

Q: Does B1 bind?
A: Result: no binding

Q: Does B2 bind?
A: Result: no binding

Q: Does B3 bind?
A: Result: no binding

Q: Does B4 bind?
A: Result: no binding

Q: Does B5 bind?
A: Result: no binding

Q: Does B6 bind?
A: Result: no binding

Q: Does B7 bind?
A: Result: no binding

Q: Does B8 bind?
A: Result: no binding

These binders were tested against T4, FcRL2, overexpressed on 3T3 cells (assay: phage clone on 3T3-FcRL2 cells).

Q: Does B1 bind?
A: Result: no binding

Q: Does B2 bind?
A: Result: no binding

Q: Does B3 bind?
A: Result: no binding

Q: Does B4 bind?
A: Result: no binding

Q: Does B5 bind?
A: Result: no binding

Q: Does B6 bind?
A: Result: no binding

Q: Does B7 bind?
A: Result: no binding

Q: Does B8 bind?
A: Result: no binding

Reference: patent US20210388081A1 (Memorial Sloan Kettering, published 2021)
